Reference: patent publication US20240002497A1 (Merck Sharp & Dohme, published 2024)
Where two headings read alike, the source gives them in different places.

How the values were obtained:
[1] = target: T1, huNav1.7α (human, UniProt Q15858 1-1988); experiment: binding FACS, HEKa cells
T1 construct: HEK cells expressing the α subunit alone; also called HEKa; HEK huNav1.7α

[2] = target: T2, rhNav1.7α+β1-β2-β3 (rhesus monkey α subunit with human β …); experiment: cell-based or functional assay
[3] = target: T1, huNav1.7α; experiment: cell-based or functional assay
[4] = target: rhNav1.7α (rhesus monkey, UniProt Q15858 1-1988 (human entry)); experiment: cell-based or functional assay
[5] = target: T3, huNav1.7α+β1 (human, UniProt Q15858 1-1988; Q07699 19-218); experiment: cell-based or functional assay
[6] = target: T3, huNav1.7α+β1; experiment: binding FACS, HEKa/β1 cells
[7] = target: T2, rhNav1.7α+β1-β2-β3; experiment: binding FACS, CHO FlpIn cells
[8] = target: T4, huNav157chim14 (human); experiment: binding FACS, HEK Flp-In
T4 construct: HEK Flp-In cells; also called huNav157 chimera 14

[9] = target: T5, huNav1.7α (human, UniProt Q15858 1-1988); experiment: binding FACS, HEK
T5 construct: HEK cells expressing the α subunit without β subunits; also called huNav1.7 (alpha-subunit); Human Nav1.7α

[10] = target: T6, huNav1.7α + β1 (human); experiment: binding FACS, HEK
T6 construct: HEK293 cells; also called huNav1.7-beta1; huNav1.7-β1

[11] = target: T7, rhNav1.7α + β1-β2-β3 (rhesus monkey); experiment: competition FACS vs EC40 of F103275B05(N93R), CHO FlpIn
T7 construct: also called rhNav1.7-beta1-beta2-beta3; rhNav1.7-β1-β2-β3

[12] = target: T8, huNav1.7α + β1-β2-β3 (human, UniProt Q15858 1-1988; A5A6L6 19-218; O60939 30-215; Q2KI11 23-215); experiment: competition FACS vs EC25 of F103275B05(N93R), CHO FlpIn
T8 construct: also called huNav1.7-beta1-beta2-beta3; huNav1.7-β1-β2-β3

[13] = target: T5, huNav1.7α; experiment: competition FACS vs EC25 of F103275B05(N93R), HEK
[14] = target: T6, huNav1.7α + β1; experiment: competition FACS vs EC25 of F103275B05(N93R), HEK
[15] = target: T8, huNav1.7α + β1-β2-β3; experiment: competition FACS vs EC25 of F103275B05(N93R), HEK FlpIn
[16] = target: T3, huNav1.7α+β1; experiment: binding FACS, HEKa/β1 cells; remark: listed apart in the source
Summary of the method: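 Cells at 1×10^5 per well incubated 30 min at 4 °C with purified FLAG3-tagged ISVD in FACS buffer (PBS, 10% FBS, NaN₃); bound ISVD detected via murine anti-Flag by flow cytometry, dead cells excluded with 1 μg/mL propidium iodide.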

[17] = target: T1, huNav1.7α; experiment: binding FACS, HEKa cells; remark: listed apart in the source
Experimental: Binding of the ISVDs to cell-expressed Nav1.7α was detected via murine anti-Flag (Sigma, catalog #F1804). Briefly, cells were resuspended in FACS buffer (PBS, 10% FBS, NaN₃) and transferred to a 96-well V-bottom plate at 1×10^5 cells/well. Purified FLAG3-tagged ISVD was diluted in FACS buffer and added to the cells for 30 minutes at 4° C. […] Prior to the read-out, the samples were resuspended in 1 μg/mL propidium iodide (Sigma, catalog #P4170) to exclude dead cells. Between each step, the cells were centrifuged for 5 minutes at 200 grams and washed with 100 μL/well FACS buffer.

[18] = target: T9, huNav1.7α+β1-β2-β3 (human, UniProt Q15858 1-1988; Q07699 19-218; O60939 30-215; Q9NY72 23-215); experiment: binding FACS, HEK FlpIn cells
T9 construct: 5N11S variant; also called huNav1.7-beta1-beta2-beta3; huNav1.7α+Navβ1-Navβ2-Navβ3

B1: F010300659 (VHH)
VHH: EVQLVESGGGLVQPGGSLRLSCAASGPVFNINSMAWYRRAPGKQRELVAYSTPGWDWNYADSVKGRFTISRDNAKRVYLQMNSLTPEDTAVYYCRWLLQPSIYDISRTYWGQGTLVTVSS
notes: also called F0103275B05(S27P, I28V, S50Y, N53P, G55W, S56D, T57W, N93R, A94W)+FLAG3-HIS6
[1]
  EC50: 9.7 nM
[2]
  single pulse IC50: 180 nM
[3]
  2-pulse IC50 [M], P1: 1e-06 M
  2-pulse IC50 [M], P2: 8e-07 M
[4]
  2-pulse IC50 [M], P1: 1e-06 M
  2-pulse IC50 [M], P2: 7e-07 M
[5]
  single pulse IC50: 85 nM
[6]
  EC50: 27 nM
[7]
  EC50: 55 nM

B2: F010300702 (bispecific antibody, V domains shown, not shown: small tags and cut ends)
VH: EVQLVESGGGLVQPGGSLRLSCAASGSIFNINSMAWYRRAPGKQRELVASSTNGGSTNYADSVKGRFTISRDNAKRVYLQMNSLTPEDTAVYYCRALLQPSIYDISRTYWGQGTLVTVSS
notes: also called F010300702 (n = 15); control bivalent ISVD
[8]
  MFI: 27700 MFI

B3: F0103275B05-FLAG3 + HIS6 (VHH)
VHH: EVQLVESGGGLVQPGGSLRLSCAASGSIFNINSMAWYRRAPGKQRELVASSTNGGSTNYADSVKGRFTISRDNAKRVYLQMNSLTPEDTAVYYCNALLQPSIYDISRTYWGQGTLVTVSS
notes: also called F0103275B05 (parental)-FLAG-HIS6
[9]
  EC50: 13 nM
[10]
  EC50: 13 nM

B4: F010302380 (bispecific antibody)
chain: DVQLVESGGGLVQPGGSLRLSCAASGSIFNINSMAWYRRAPGKQRELVASSTNGGSTNYADSVKGRFTISRDNAKRVYLQMNSLTPEDTAVYYCRALLQPSIYDISRTYWGQGTLVTVSSGGGGSGGGGSGGGGSGGGGSGGGGSGGGGSGGGGSGGGGSGGGGSGGGGSEVQLVESGGGLVQAGGSLRLSCVTSGRTSDLSTMNWFRQAPGKEREFVARITRRGSTYYAESVKERFIISRDNAKNTVYLQMNSLKPEDTANYYCTAASEMGYHYRGQGTQVTVSSGAADYKDHDGDYKDHDIDYKDDDDKGAAHHHHHH
notes: also called F0103275B05(E1D, N93R)-50GS-F0103505D08(L108Q)-FLAG3-HIS6
[11]
  IC50: 2 nM
[12]
  IC50: 8.1 nM
[13]
  IC50: 67 nM
[14]
  IC50: 110 nM
[15]
  IC50: 8.7 nM

B5: F010300534 (VHH)
VHH: EVQLVESGGGLVQPGGSLRLSCAASGMLFNANTQGWYRQAPGKQRELVAFIFSGGYVNYVDSVKGRFTISRDNAKRTMYLQMNSLKPEDSAIYYCSLSRYLGQGTLVTVSS
notes: vs F0103265A11: T57V
[16]
  Bmax relative to '535: 62%
  EC50: 11 nM
[17]
  binding result: no binding
[18]
  EC50: 72 nM

B6: F010301458 (VHH)
VHH: EVQLVESGGGLVQPGGSLRLSCAASGMLFNRNTQGWYRQAPGKQRELVAFIFSGGWTNYNDSVKGRFTISRDNAKRTMYLQMNSLKPEDSAIYYCALSRYQGQGTLVTVSS
notes: vs F0103265A11: A31R, Y56W, V60N, S93A, L103Q
[16]
  Bmax relative to '535: 120%
  EC50: 2.2 nM
[18]
  EC50: 4.1 nM

B7: F010300536 (VHH)
VHH: EVQLVESGGGLVQPGGSLRLSCAASGMLFNANTQGWYRQAPGKQRELVAFIFSGGYTTYVDSVKGRFTISRDNAKRTMYLQMNSLKPEDSAIYYCSLSRYLGQGTLVTVSS
notes: vs F0103265A11: N58T
[16]
  Bmax relative to '535: 77%
  EC50: 9 nM
[17]
  EC50: 660 nM
[18]
  EC50: 27 nM

B8: F010301463 (VHH)
VHH: EVQLVESGGGLVQPGGSLRLSCAASGMLFNRNTQGWYRQAPGKQRELVAFIFSGGYTNYNDSVKGRFTISRDNAKRTMYLQMNSLKPEDSAIYYCALSRYQGQGTLVTVSS
notes: vs F0103265A11: A31R, V60N, S93A, L103Q
[16]
  Bmax relative to '535: 120%
  EC50: 2.5 nM
[18]
  EC50: 4.3 nM

B9: F010300535 (VHH)
VHH: EVQLVESGGGLVQPGGSLRLSCAASGMLFNANTQGWYRQAPGKQRELVAFIFWGGYTNYVDSVKGRFTISRDNAKRTMYLQMNSLKPEDSAIYYCSLSRYLGQGTLVTVSS
notes: vs F0103265A11: S53W
[16]
  Bmax relative to '535: 100%
  EC50: 5.5 nM
[17]
  EC50: 720 nM
[18]
  EC50: 16 nM

B10: F010300191 (bispecific antibody)
chain: EVQLVESGGGLVQPGGSLRLSCAASGSIFNINSMAWYRRAPGKQRELVASSTNGGSTNYADSVKGRFTISRDNAKRVYLQMNSLTPEDTAVYYCNALLQPSIYDISRTYWGQGTLVTVSSGGGGSGGGGSGGGGSGGGGSGGGGSGGGGSGGGGSGGGGSGGGGSGGGGSEVQLVESGGGLVQAGGSLRLSCAASGGTGRRYAMGWFRQAPGKEREIVAAIRWSAMTYYADDGKGRFTISRDNAKNTVYLQMNSLKPEDTAIYYCAYTWDYFKYDQVRAYRGWGQGTLVTVSSGAADYKDHDGDYKDHDIDYKDDDDKGAAHHHHHH
notes: also called F0103275B05-50GS-F0103240B04-FLAG3-HIS6
[13]
  IC50: 67 nM
[14]
  IC50: 110 nM
[15]
  IC50: 0.1 nM
